# Experimental data from patent publication US20130157929A1, “GLUCAGON ANALOGUES” (ZEALAND PHARMA A/S, published 2013).
# Starred links: 1 amine or outer side, 2 acyl side, 3 side chain; linkers in the order of their positions; H or OH if unused. Non-standard residues stand in square brackets, D forms with d. Groups on a side chain read outwards from the residue. *: point of attachment. γGlu = O=C(O)[C@H](CCC(=O)[*:2])N[*:1]; Palmitoyl = CCCCCCCCCCCCCCCC(=O)*; 3Pal = N[C@@H](Cc1cccnc1)C(=O)O; Cit = NC(=O)NCCC[C@H](N)C(=O)O; hSer = N[C@@H](CCO)C(=O)O; Aib = CC(C)(N)C(=O)O
# B1: Compound 19 (peptide)
# peptide: H-H[Aib]IGTFTSDYSKYLDSK([γGlu-Palmitoyl])AAHDFVEWLLSA-NH2
# SMILES: CCCCCCCCCCCCCCCC(=O)N[C@@H](CCC(=O)NCCCC[C@H](NC(=O)[C@H](CO)NC(=O)[C@H](CC(=O)O)NC(=O)[C@H](CC(C)C)NC(=O)[C@H](Cc1ccc(O)cc1)NC(=O)[C@H](CCCCN)NC(=O)[C@H](CO)NC(=O)[C@H](Cc1ccc(O)cc1)NC(=O)[C@H](CC(=O)O)NC(=O)[C@H](CO)NC(=O)[C@@H](NC(=O)[C@H](Cc1ccccc1)NC(=O)[C@@H](NC(=O)CNC(=O)[C@@H](NC(=O)C(C)(C)NC(=O)[C@@H](N)Cc1c[nH]cn1)[C@@H](C)CC)[C@@H](C)O)[C@@H](C)O)C(=O)N[C@@H](C)C(=O)N[C@@H](C)C(=O)N[C@@H](Cc1c[nH]cn1)C(=O)N[C@@H](CC(=O)O)C(=O)N[C@@H](Cc1ccccc1)C(=O)N[C@H](C(=O)N[C@@H](CCC(=O)O)C(=O)N[C@@H](Cc1c[nH]c2ccccc12)C(=O)N[C@@H](CC(C)C)C(=O)N[C@@H](CC(C)C)C(=O)N[C@@H](CO)C(=O)N[C@@H](C)C(N)=O)C(C)C)C(=O)O
# B2: Compound 1 (peptide)
# peptide: H-H[Aib]HGTFTSDYSKYLDSK([γGlu-Palmitoyl])AAHDFVEWLLSA-NH2
# SMILES: CCCCCCCCCCCCCCCC(=O)N[C@@H](CCC(=O)NCCCC[C@H](NC(=O)[C@H](CO)NC(=O)[C@H](CC(=O)O)NC(=O)[C@H](CC(C)C)NC(=O)[C@H](Cc1ccc(O)cc1)NC(=O)[C@H](CCCCN)NC(=O)[C@H](CO)NC(=O)[C@H](Cc1ccc(O)cc1)NC(=O)[C@H](CC(=O)O)NC(=O)[C@H](CO)NC(=O)[C@@H](NC(=O)[C@H](Cc1ccccc1)NC(=O)[C@@H](NC(=O)CNC(=O)[C@H](Cc1c[nH]cn1)NC(=O)C(C)(C)NC(=O)[C@@H](N)Cc1c[nH]cn1)[C@@H](C)O)[C@@H](C)O)C(=O)N[C@@H](C)C(=O)N[C@@H](C)C(=O)N[C@@H](Cc1c[nH]cn1)C(=O)N[C@@H](CC(=O)O)C(=O)N[C@@H](Cc1ccccc1)C(=O)N[C@H](C(=O)N[C@@H](CCC(=O)O)C(=O)N[C@@H](Cc1c[nH]c2ccccc12)C(=O)N[C@@H](CC(C)C)C(=O)N[C@@H](CC(C)C)C(=O)N[C@@H](CO)C(=O)N[C@@H](C)C(N)=O)C(C)C)C(=O)O
# B3: Compound 20 (peptide)
# peptide: H-H[Aib]GGTFTSDYSKYLDSK([γGlu-Palmitoyl])AAHDFVEWLLSA-NH2
# SMILES: CCCCCCCCCCCCCCCC(=O)N[C@@H](CCC(=O)NCCCC[C@H](NC(=O)[C@H](CO)NC(=O)[C@H](CC(=O)O)NC(=O)[C@H](CC(C)C)NC(=O)[C@H](Cc1ccc(O)cc1)NC(=O)[C@H](CCCCN)NC(=O)[C@H](CO)NC(=O)[C@H](Cc1ccc(O)cc1)NC(=O)[C@H](CC(=O)O)NC(=O)[C@H](CO)NC(=O)[C@@H](NC(=O)[C@H](Cc1ccccc1)NC(=O)[C@@H](NC(=O)CNC(=O)CNC(=O)C(C)(C)NC(=O)[C@@H](N)Cc1c[nH]cn1)[C@@H](C)O)[C@@H](C)O)C(=O)N[C@@H](C)C(=O)N[C@@H](C)C(=O)N[C@@H](Cc1c[nH]cn1)C(=O)N[C@@H](CC(=O)O)C(=O)N[C@@H](Cc1ccccc1)C(=O)N[C@H](C(=O)N[C@@H](CCC(=O)O)C(=O)N[C@@H](Cc1c[nH]c2ccccc12)C(=O)N[C@@H](CC(C)C)C(=O)N[C@@H](CC(C)C)C(=O)N[C@@H](CO)C(=O)N[C@@H](C)C(N)=O)C(C)C)C(=O)O
# B4: Compound 21 (peptide)
# peptide: H-H[Aib][Cit]GTFTSDYSKYLDSK([γGlu-Palmitoyl])AAHDFVEWLLSA-NH2
# SMILES: CCCCCCCCCCCCCCCC(=O)N[C@@H](CCC(=O)NCCCC[C@H](NC(=O)[C@H](CO)NC(=O)[C@H](CC(=O)O)NC(=O)[C@H](CC(C)C)NC(=O)[C@H](Cc1ccc(O)cc1)NC(=O)[C@H](CCCCN)NC(=O)[C@H](CO)NC(=O)[C@H](Cc1ccc(O)cc1)NC(=O)[C@H](CC(=O)O)NC(=O)[C@H](CO)NC(=O)[C@@H](NC(=O)[C@H](Cc1ccccc1)NC(=O)[C@@H](NC(=O)CNC(=O)[C@H](CCCNC(N)=O)NC(=O)C(C)(C)NC(=O)[C@@H](N)Cc1c[nH]cn1)[C@@H](C)O)[C@@H](C)O)C(=O)N[C@@H](C)C(=O)N[C@@H](C)C(=O)N[C@@H](Cc1c[nH]cn1)C(=O)N[C@@H](CC(=O)O)C(=O)N[C@@H](Cc1ccccc1)C(=O)N[C@H](C(=O)N[C@@H](CCC(=O)O)C(=O)N[C@@H](Cc1c[nH]c2ccccc12)C(=O)N[C@@H](CC(C)C)C(=O)N[C@@H](CC(C)C)C(=O)N[C@@H](CO)C(=O)N[C@@H](C)C(N)=O)C(C)C)C(=O)O
# B5: Compound 31 (peptide)
# peptide: H-H[Aib]HGTFTSDYSKYLESK([γGlu-Palmitoyl])AAEEFVEWLLEA-NH2
# SMILES: CCCCCCCCCCCCCCCC(=O)N[C@@H](CCC(=O)NCCCC[C@H](NC(=O)[C@H](CO)NC(=O)[C@H](CCC(=O)O)NC(=O)[C@H](CC(C)C)NC(=O)[C@H](Cc1ccc(O)cc1)NC(=O)[C@H](CCCCN)NC(=O)[C@H](CO)NC(=O)[C@H](Cc1ccc(O)cc1)NC(=O)[C@H](CC(=O)O)NC(=O)[C@H](CO)NC(=O)[C@@H](NC(=O)[C@H](Cc1ccccc1)NC(=O)[C@@H](NC(=O)CNC(=O)[C@H](Cc1c[nH]cn1)NC(=O)C(C)(C)NC(=O)[C@@H](N)Cc1c[nH]cn1)[C@@H](C)O)[C@@H](C)O)C(=O)N[C@@H](C)C(=O)N[C@@H](C)C(=O)N[C@@H](CCC(=O)O)C(=O)N[C@@H](CCC(=O)O)C(=O)N[C@@H](Cc1ccccc1)C(=O)N[C@H](C(=O)N[C@@H](CCC(=O)O)C(=O)N[C@@H](Cc1c[nH]c2ccccc12)C(=O)N[C@@H](CC(C)C)C(=O)N[C@@H](CC(C)C)C(=O)N[C@@H](CCC(=O)O)C(=O)N[C@@H](C)C(N)=O)C(C)C)C(=O)O
# Biological target: human glucagon-like peptide 1 receptor (GLP-1R) (human, UniProt P43220)
# Assay: cell-based or functional assay
Binder,"EC50 (nM) GLP-1R, cAMP formation [nM]","EC50 (nM) GLP-1R, cAMP formation, earlier determination [nM]"
B1,0.16,–
B2,0.21,–
B3,0.21,0.89
H-H[Aib][3Pal]GTFTSDYSKYLDSK([γGlu-Palmitoyl])AAHDFVEWLLSA-NH2 [Compound 24],0.14,–
H-H[Aib][3‑(2-furyl)alanyl]GTFTSDYSKYLDSK([γGlu-Palmitoyl])AAHDFVEWLLSA-NH2 [Compound 22],0.06,–
H-H[Aib][3‑(2-thienyl)alanyl]GTFTSDYSKYLDSK([γGlu-Palmitoyl])AAHDFVEWLLSA-NH2 [Compound 26],0.08,–
B4,1.2,–
H-H[Aib][3‑(4-thiazolyl)alanyl]GTFTSDYSKYLDSK([γGlu-Palmitoyl])AAHDFVEWLLSA-NH2 [Compound 23],0.11,–
B5,0.09,–
H-H[Aib][3‑(1-pyrazolyl)alanyl]GTFTSDYSKYLDSK([γGlu-Palmitoyl])AAHDFVEWLLSA-NH2 [Compound 28],0.11,–
"H-H[Aib][3‑(1,2,4-triazol-1-yl)alanyl]GTFTSDYSKYLDSK([γGlu-Palmitoyl])AAHDFVEWLLSA-NH2 [Compound 25]",0.09,–
H-H[Aib][3‑(3-thienyl)alanyl]GTFTSDYSKYLDSK([γGlu-Palmitoyl])AAHDFVEWLLSA-NH2 [Compound 27],0.27,–
H-H[Aib][hSer]GTFTSDYSKYLDSK([γGlu-Palmitoyl])AAHDFVEWLLSA-NH2 [Compound 29],0.05,–

# Biological target: human glucagon receptor (glucagon-R) (human, UniProt P47871)
# Assay: cell-based or functional assay
Binder,"EC50 (nM) GluR, cAMP formation [nM]","EC50 (nM) GluR, cAMP formation, earlier determination [nM]"
B1,0.74,3
B2,0.26,–
B3,26,–
H-H[Aib][3Pal]GTFTSDYSKYLDSK([γGlu-Palmitoyl])AAHDFVEWLLSA-NH2 [Compound 24],1.04,–
H-H[Aib][3‑(2-furyl)alanyl]GTFTSDYSKYLDSK([γGlu-Palmitoyl])AAHDFVEWLLSA-NH2 [Compound 22],3.8,–
H-H[Aib][3‑(2-thienyl)alanyl]GTFTSDYSKYLDSK([γGlu-Palmitoyl])AAHDFVEWLLSA-NH2 [Compound 26],1.16,–
B4,35,–
H-H[Aib][3‑(4-thiazolyl)alanyl]GTFTSDYSKYLDSK([γGlu-Palmitoyl])AAHDFVEWLLSA-NH2 [Compound 23],0.99,–
B5,0.15,–
H-H[Aib][3‑(1-pyrazolyl)alanyl]GTFTSDYSKYLDSK([γGlu-Palmitoyl])AAHDFVEWLLSA-NH2 [Compound 28],4.85,–
"H-H[Aib][3‑(1,2,4-triazol-1-yl)alanyl]GTFTSDYSKYLDSK([γGlu-Palmitoyl])AAHDFVEWLLSA-NH2 [Compound 25]",0.71,–
H-H[Aib][3‑(3-thienyl)alanyl]GTFTSDYSKYLDSK([γGlu-Palmitoyl])AAHDFVEWLLSA-NH2 [Compound 27],1.58,–
H-H[Aib][hSer]GTFTSDYSKYLDSK([γGlu-Palmitoyl])AAHDFVEWLLSA-NH2 [Compound 29],0.79,–
